Test results published in publication PMC3274613 (Bioorganic & medicinal chemistry letters, 2012).
Bridge positions count the residues as written; N and C are the ends. Square brackets hold non-standard residues; d marks the D form. Peptide text beside a SMILES is read from it.

Tests used:
αvβ3 integrin receptor = settings: relative to RGD-Lys-(Arg11)CCMSH; cited from earlier work
MC1 receptor = settings: read-out: MC1 receptor binding affinity; M21 melanoma cells; cited from earlier work
in vivo = test: in vivo; set-up: species or system mice; settings: C57, mouse, iv, total radioactivity
[1] = tested on: B16/F1 melanoma-bearing C57 mice; test: in vivo; settings: C57, mouse, iv, 2 h
[2] = tested on: B16/F1 melanoma-bearing C57 mouse; test: SPECT/CT melanoma imaging; assay type: in vivo; settings: 2 h post-injection, approximately 6.7 MBq, one mouse
[3] = mouse, in vivo
B16/F1 melanoma cells = test: Cellular internalization in B16/F1 melanoma cells; assay type: cell-based, murine
[4] = 0.037 MBq, Uptake ratio Tumor/Lung

| SMILES | Decrease of αvβ3 integrin receptor binding affinity on switch from RGD to RAD (αvβ3 integrin receptor) | IC50 (MC1 receptor) | tissue to tissue ratio at 0.5 h (in vivo; [4]) | tissue to tissue ratio at 2 h (in vivo; [4]) | tissue to tissue ratio at 4 h (in vivo; [4]) | tissue to tissue ratio at 24 h (in vivo; [4]) | tissue uptake dose at 2 h (in vivo; Bladder, percent injected dose) | Bladder, percent injected dose [1] | Blood, percent injected dose/gram [1] | Bone, percent injected dose/gram [1] | Heart, percent injected dose/gram [1] | Kidneys, percent injected dose/gram [1] | Lung, percent injected dose/gram [1] | Muscle, percent injected dose/gram [1] | Spleen, percent injected dose/gram [1] | Stomach, percent injected dose/gram [1] | Visualization of flank melanoma tumors by SPECT/CT [2] | Transformed to a more lipophilic metabolite in urine [3] | Activity internalized (B16/F1 melanoma cells; 20 min post incubation) | Activity internalized (B16/F1 melanoma cells; after 2 h incubation) |
| --- | --- | --- | --- | --- | --- | --- | --- | --- | --- | --- | --- | --- | --- | --- | --- | --- | --- | --- | --- | --- |
| CC(C)[C@H](NC(=O)[C@@H]1CCCN1C(=O)[C@H](CCCNC(=N)N)NC(=O)[C@H](CS)NC(=O)[C@H](Cc1c[nH]c2ccccc12)NC(=O)[C@H](CCCNC(=N)N)NC(=O)[C@@H](Cc1ccccc1)NC(=O)[C@H](Cc1c[nH]cn1)NC(=O)[C@H](CCC(=O)O)NC(=O)[C@H](CS)NC(=O)[C@H](CS)NC(=O)[C@H](CCCCN)NC(=O)[C@@H]1CC(=O)N[C@@H](CCCNC(=N)N)C(=O)N[C@@H](C)C(=O)N[C@@H](CC(=O)O)C(=O)N[C@H](Cc2ccc(O)cc2)C(=O)N1)C(N)=O [RAD-Lys-(Arg^11)CCMSH] (RAD[dY]DKCCEH[dF]RWCRPV-NH2; lactam N-5; C-terminus assumed) | 248 fold | 0.3 nM | – | – | – | – | – | – | – | – | – | – | – | – | – | – | – | – | – | – |
| CC(C)[C@H](NC(=O)[C@@H]1CCCN1C(=O)[C@H](CCCNC(=N)N)NC(=O)[C@H](CS)NC(=O)[C@H](Cc1c[nH]c2ccccc12)NC(=O)[C@H](CCCNC(=N)N)NC(=O)[C@@H](Cc1ccccc1)NC(=O)[C@H](Cc1c[nH]cn1)NC(=O)[C@H](CCC(=O)O)NC(=O)[C@H](CS)NC(=O)[C@H](CS)NC(=O)[C@H](CCCCN)NC(=O)[C@@H]1CC(=O)N[C@@H](CCCNC(=N)N)C(=O)N[C@@H](C)C(=O)N[C@@H](CC(=O)O)C(=O)N[C@H](Cc2ccc(O)cc2)C(=O)N1)C(N)=O [^99mTc-RAD-Lys-(Arg^11)CCMSH, metal not drawn] (RAD[dY]DKCCEH[dF]RWCRPV-NH2; lactam N-5; C-terminus assumed) | – | – | 4.26 | 22.9 | 39.1 | 31.9 | 69.54 ± 0.63 %ID | 70.34 ± 3.28 %ID | 0.44 ± 0.11 %ID/g | 0.52 ± 0.31 %ID/g | 0.30 ± 0.10 %ID/g | 50.10 ± 18.56 %ID/g | 0.78 ± 0.17 %ID/g | 0.28 ± 0.30 %ID/g | 0.50 ± 0.09 %ID/g | 1.92 ± 0.24 %ID/g | visualized clearly | 18% | 59.20 ± 5.10% | 78.24 ± 1.13% |
